Measurements reported in the supplement of paper PMC10567573.

B1: CHCHD6 (parent)
chain: MYKLSSEQFHEAASKMESTIKPRR

Variants of: B1
Assay: protein stability index of a GFP-peptide fusion (GPS, HEK-293T) (PSI 1-6); higher = more stable
Details: c terminus: a fixed tail appended
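Further: lentivirally expressed fusions sorted by FACS into six bins by GFP to DsRed ratio, PSI derived from sequencing read proportions per bin multiplied by bin number.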

| Variant | protein stability index |
| --- | --- |
| Q8Y | 2.94 |
| Q8P | 4.39 |
| Q8F | 2.65 |
| Q8L | 3.22 |
| Q8S | 3.74 |
| Q8N | 3.86 |
| Q8H | 3.22 |
| Q8D | 3.73 |
| Q8K | 3.84 |
| Q8V | 3.49 |
| Q8G | 3.35 |
| Q8E | 3.75 |
| Q8C | 2.96 |
| Q8W | 2.5 |
| Q8R | 3.86 |
| Q8M | 3.39 |
| Q8I | 2.84 |
| Q8A | 4.25 |
| Q8T | 4.16 |
| L4M | 4.27 |
| L4W | 3.77 |
| L4V | 3.74 |
| L4K | 4.49 |
| L4Y | 3.53 |

| Variant | protein stability index |
| --- | --- |
| L4S | 4.06 |
| L4P | 4.61 |
| L4F | 3.5 |
| L4R | 4.24 |
| L4E | 4.34 |
| L4H | 3.58 |
| L4C | 3.29 |
| L4A | 4.69 |
| L4I | 3.18 |
| L4T | 3.81 |
| L4Q | 4.32 |
| L4N | 4.23 |
| L4D | 4.53 |
| M1T | 4.12 |
| M1P | 4.36 |
| M1H | 4.18 |
| M1V | 4.03 |
| M1K | 4.13 |
| M1I | 3.41 |
| M1L | 3.06 |
| M1R | 4.33 |
| M1G | 4.53 |
| M1W | 3.36 |
| M1Y | 3.56 |

| Variant | protein stability index |
| --- | --- |
| M1Q | 4.24 |
| M1N | 4.37 |
| M1S | 4 |
| F9P | 4.68 |
| F9M | 4.28 |
| F9N | 4.64 |
| F9V | 3.36 |
| F9G | 4.21 |
| F9I | 4.06 |
| F9C | 3.83 |
| F9Q | 4.12 |
| F9L | 3.36 |
| F9D | 4.82 |
| F9S | 4.81 |
| F9E | 4.43 |
| F9H | 4.32 |
| F9W | 3.23 |
| F9Y | 3.98 |
| F9K | 4.58 |
| F9A | 4.03 |
| F9T | 4.2 |
| F9R | 4.25 |
| E7K | 3.71 |
| E7M | 2.97 |

| Variant | protein stability index |
| --- | --- |
| E7L | 3.71 |
| E7F | 3.1 |
| E7H | 3.44 |
| E7P | 3.64 |
| E7I | 3.1 |
| E7G | 4.39 |
| E7T | 3.2 |
| E7Y | 2.82 |
| E7R | 2.96 |
| E7N | 3.58 |
| E7V | 3.44 |
| E7Q | 3.58 |
| E7C | 3.29 |
| E7A | 3.6 |
| E7W | 2.56 |
| E7S | 3.79 |
| E7D | 3.7 |
| S5F | 2.82 |
| S5K | 3.56 |
| S5V | 3.43 |
| S5P | 3.17 |
| S5A | 4.02 |
| S5I | 2.65 |
| S5H | 4.14 |

| Variant | protein stability index |
| --- | --- |
| S5W | 3.17 |
| S5D | 4.06 |
| S5L | 3.02 |
| S5Q | 3.78 |
| S5T | 3.64 |
| S5Y | 2.72 |
| S5C | 3.14 |
| S5G | 4.68 |
| S5N | 4.06 |
| S5R | 3.94 |
| S5E | 4.24 |
| S5M | 3.87 |
| K3F | 2.55 |
| K3E | 3.66 |
| K3Q | 4.17 |
| K3N | 3.68 |
| K3H | 3.98 |
| K3I | 2.59 |
| K3P | 4.17 |
| K3S | 2.47 |
| K3W | 2.94 |
| K3V | 2.7 |
| K3L | 2.66 |
| K3G | 4.46 |

| Variant | protein stability index |
| --- | --- |
| K3R | 3.6 |
| K3T | 3.73 |
| K3Y | 3.08 |
| K3D | 3.84 |
| K3A | 4.56 |
| K3M | 3.7 |
| K3C | 3.63 |
| H10C | 3.93 |
| H10A | 3.66 |
| Y2P | 4.77 |
| Y2M | 4.45 |
| Y2R | 4.7 |
| Y2K | 4.7 |
| Y2Q | 4.25 |
| Y2W | 2.58 |
| Y2N | 4.51 |
| Y2E | 4.42 |
| Y2A | 4.55 |
| Y2G | 4.48 |
| Y2C | 3.53 |
| Y2L | 4.34 |
| Y2D | 4.83 |
| Y2H | 4.44 |
| Y2I | 3.98 |

| Variant | protein stability index |
| --- | --- |
| Y2S | 4.5 |
| Y2F | 4.01 |
| Y2V | 4.05 |
| Y2T | 3.29 |
| S6M | 3.74 |
| S6I | 2.64 |
| S6Y | 3.39 |
| S6R | 3.39 |
| S6N | 4.23 |
| S6A | 3.64 |
| S6C | 3.52 |
| S6L | 3.03 |
| S6V | 3.1 |
| S6E | 3.53 |
| S6K | 3.93 |
| S6P | 3.78 |
| S6F | 3.46 |
| S6Q | 4.25 |
| S6D | 4.03 |
| S6H | 3.53 |
| S6W | 2.62 |
| S6G | 4.26 |
| S6T | 4.18 |
